Experimental data reported in the nanobody polyreactivity screen of Harvey et al. (2022).

Assay: yeast display, Sf9 membrane polyspecificity reagent, FACS + sequencing; frameworks hold sequencing errors
Summary of the method: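 A synthetic nanobody library was expressed on Saccharomyces cerevisiae BJ5465 by galactose induction for 36–48 hours. The library was stained for 1 hour at 4 °C with 10% biotinylated, detergent-solubilized Sf9 membrane reagent and enriched with streptavidin microbeads before FACS. Low and high (top ~1%) gates were set on anti-HA fluorescence for expression and streptavidin fluorescence for reagent binding, and each polyreactivity label reflects the gate of origin.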

QVQLVESGGGLVQAGGSLRLSCAASGSTFPYNTMGWYRQAPGKEREFVAAITGDGGTTYYADSVKGRFTISRDNAKNTVYLQMYSLKPEDTAVYYSAVPYPAEGYGGDYWGQGTQVTVSS
polyreactivity (PSR sort gate): low polyreactivity

QVQLVESGGGLVQAGGSLRLSCAASGSTFPYPYTMGWYREAPGKERELVAVISRTGGSTFYADSVKRRFTISRDNAKNTVYLQMNSLKPEDTAVYYCAARRDGWTFWKYDYWGQGTQVTVSS
polyreactivity (PSR sort gate): high polyreactivity

QVQLVESGGGLVQAGGSLRLSCAASGSTFPYVMGWYTPAPGKERELVAAISQRTGSTYYADSVKGRFTISRDNAKNSVYLQMNILKPEDTAVYYCAKPVYLSPSRYDYWGQGTQVTVSS
polyreactivity (PSR sort gate): high polyreactivity

QVQLVESGGGLVQAGGSLRLSCAASGSTFPYYAMGWYRQAPGKERELVAAISKSGGSTYYADSVKGRFTISRDNAKNTVYLQMNSLKPEDTAVYYCAAGPRYRYYSGWYDYWGQGTQVTVSS
polyreactivity (PSR sort gate): high polyreactivity

QVQLVESGGGLVQAGGSLRLSCAASGSTFPYYAMGWYRQAPGKERELVAAISSSGGSTYYADSVKGRFTISRDNANNTVYLQMNSLKPEDTAVYYCATSSLYRYWHRYDYWGQGTQVTVSS
polyreactivity (PSR sort gate): high polyreactivity

QVQLVESGGGLVQAGGSLRLSCAASGSTFPYYAMGWYRQAPGKERELVAAISSSGSRTYYADSVKGRFTISRDNAKNTVYLQMNSLKPEDTAVYYCAADNAAQPYPAGMDYWGQGTQVTVSS
polyreactivity (PSR sort gate): low polyreactivity

QVQLVESGGGLVQAGGSLRLSCAASGSTFPYYAMGWYRQAPGKERELVAAITSGGSTNYADSVKGRFTISRDNAKNTVYLQMNSLKPEDTAVYYCNAEWRRRYTYLRRVYYGFDYWGQGTQVTVSS
polyreactivity (PSR sort gate): high polyreactivity

QVQLVESGGGLVQAGGSLRLSCAASGSTFQANTMGWYRQAPGKERELVAAISIRGANTYYADSVKGRFTISRDNAKNTVYLQMNSLKPEDTAVYYCNAALRTRRGDYDYWGQGTQVTVSS
polyreactivity (PSR sort gate): high polyreactivity

QVQLVESGGGLVQAGGSLRLSCAASGSTFQFNAMGWYRPAPGKEREFVAAITSSAGRTYYADSVKGRFTISRDNAKKTVYLQMNSLKPEDTAVYYCATGPYSPPSAGPEYDYWGQGTQVTVSS
polyreactivity (PSR sort gate): high polyreactivity

QVQLVESGGGLVQAGGSLRLSCAASGSTFQHYAMGWYRQAPGKERELVAAITHTGGSTYYADSVKGRFTISRDNAKNTVYLQMNSLKPEDTAVYYCATVGRRYGYPGYYWGQGTQVTVSS
polyreactivity (PSR sort gate): low polyreactivity

QVQLVESGGGLVQAGGSLRLSCAASGSTFQPNAMGWYRQAPGKERELVAISSGDDTYYADSVKGRFTISRDKAKNTVYFQMNSLIPEDSAVYYCAAEYSFIYYWGQGTQVTVSS
polyreactivity (PSR sort gate): low polyreactivity

QVQLVESGGGLVQAGGSLRLSCAASGSTFQRYAKGWYRQAPGKEWELVAGITGSVGRTYYADSVKGRFTISRDNAKNTVDLQMNSLKPQATAVSYCAADGRTWLYYGTRRDYWGQGTQVTVSS
polyreactivity (PSR sort gate): high polyreactivity

QVQLVESGGGLVQAGGSLRLSCAASGSTFQRYAMGWYRQAPGKERELVAAITWSGGSTYYADSVKGRFTISRDNAKNTGYLQMNSLKPEDTAVYYGAARSVRYGFGYWGQGTQVTVSS
polyreactivity (PSR sort gate): high polyreactivity

QVQLVESGGGLVQAGGSLRLSCAASGSTFQSYAMGWYRQAPGKERELVAAISARGGTTYYADSVKGRFTISRDNAKNTVYLQMNSLKPEDTAVYYCAVDRAFRAQNYHEYDYWGQGTQVTVSS
polyreactivity (PSR sort gate): low polyreactivity

QVQLVESGGGLVQAGGSLRLSCAASGSTFQSYAMGWYRQAPGKERELVARIRNSGGSTYYADSVKGRFTISRDNAKNTVYLQMNSLKPEDTAVYYCNARYVSRYLTYQYDYWGQGTQVTVSS
polyreactivity (PSR sort gate): high polyreactivity

QVQLVESGGGLVQAGGSLRLSCAASGSTFQTDTMGWYRQAPGKERELVASITWRGGRTYYADSVKGRFTISRDNAKNTVYLQMNSLKPEDTAVYYCAAVTFSYDGYDYWGQGTQVTVSS
polyreactivity (PSR sort gate): low polyreactivity

QVQLVESGGGLVQAGGSLRLSCAASGSTFQTYAMGWSRQAPGKERELVAAITWRGGSTYYADSVKGRFTISRDNAKNTVYLQMNSLKPDDTAVYYCAAKWNGSHDHRAAYESWGQGTQVTVSS
polyreactivity (PSR sort gate): low polyreactivity

QVQLVESGGGLVQAGGSLRLSCAASGSTFQTYAMGWYRQAPGKERELVAAITSGGSTNYADSVNGRFTISRDNAKNTVYLQMNSLKPEDTAVYYCAGRQIYQTSEHRLQYDYWGQGTQVTVSS
polyreactivity (PSR sort gate): low polyreactivity

QVQLVESGGGLVQAGGSLRLSCAASGSTFQVYGMGWYRQAPGKERELVAAISRSGGRTYYADSVKGRFTISRDNAKNTVYLQMNSLKPEDTAVYYCNAPISYYDEYYYWGQGTQVTVSS
polyreactivity (PSR sort gate): high polyreactivity

QVQLVESGGGLVQAGGSLRLSCAASGSTFQWYAMGWNIQAPGKERELVAGITRTGSTYYADSVKGRFTISRDNAKNTVYLQMNSLKPEDTAVYYCAAKWHTASGKYYYWGQVTQVTVSS
polyreactivity (PSR sort gate): high polyreactivity

QVQLVESGGGLVQAGGSLRLSCAASGSTFQWYAMGWYRQAPGKERELVAAISNGVSTNYADSVKGRFTISRDNAKNTVYLHMNSLKPEDTAVYYCAADAYPYYQSYYPFEYLGQGTQVTVSS
polyreactivity (PSR sort gate): low polyreactivity

QVQLVESGGGLVQAGGSLRLSCAASGSTFQYNVMGWYRQAPGKERELVAAITNRDGSTYYADSVKGRFTISRDNAKNTVYLQMNSLKPEDTAVYYCAAPVWLWADRYDSWGQGTQVTVSS
polyreactivity (PSR sort gate): low polyreactivity
